Molecular target: collagen (collagen-coated wells, source not stated)
Assay: cell-based or functional assay

human platelet-derived TGFβ1 (commercial) (from UniProt P01137 279-390) (ligand)
proliferation of 3T3 cells: 15 fold

Source: patent US6352972
